The data set has as its target TGF-β1 (human, UniProt P01137 279-390). The data set is described as follows: ELISA. Background: ELISA stands for enzyme-linked immunosorbent assay.

This is an account of results in PMC11253692.

TGF-β1, sequence (P01137 279-390): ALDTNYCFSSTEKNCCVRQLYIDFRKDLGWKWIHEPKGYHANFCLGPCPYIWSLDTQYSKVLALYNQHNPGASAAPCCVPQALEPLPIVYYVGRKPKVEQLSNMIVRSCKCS

B1: TGF-β1 aptamer (ssDNA)
DNA: CGCTCGGCTTCACGAGATTCGTGTCGTTGTGTCCTGTACCCGCCTTGACCAGTCACTCTAGAGCATCCGGACTG
modifications: 5'-SH (coupled to PEG-maleimide hydrogel)
In the case of B1, the binding signal was > 60 % bound (highest binding ratio, reached at 4 h).
